Assay results as given in article PMC6044554.

Target: InlPΔLRR5-GST fusion protein (Listeria monocytogenes)
Assay: pull-down; GST or GST fusion bait on Glutathione Sepharose 4B incubated overnight with MDCK cell lysate; beads boiled in SDS sample buffer; Western blot with anti-afadin antibody

afadin (MDCK cells) (natural protein)
fold decrease of afadin binding against InlP-GST: > 10 fold
